Experimental data taken from publication PMC2891831, “Insight into the Mechanisms of Adenovirus Capsid Disassembly from Studies of Defensin Neutralization” (PLoS Pathogens, 2010).

Legend:
HAdV-51p = test: Virus-defensin binding assay, HAdV-51p; design: species or system human adenovirus
Source text: Figure 2 HD5 binding to HAdV. A) HD5 binding to a representative defensin-sensitive serotype (HAdV-5) was quantified by an equilibrium-binding assay. Data are the mean of the number of HD5 molecules bound per virion at the indicated HD5 concentrations from at least three independent experiments ± SD. Binding curves were fitted using Prism software. B) Binding of HD5 to additional defensin-sensitive (HAdV-7p) and resistant (HAdV-19c, -25p, -51p) serotypes expressed as a percent of HD5 bound to HAdV-5. Data are the mean of two or three independent experiments ± SD.
We assessed HD5 binding to additional serotypes after incubation with 20 µM HD5 (Figure 2B). The sensitive serotype HAdV-7p bound 69.3±15.9% of the amount of HD5 bound to HAdV-5 in parallel samples; whereas, the corresponding values for the resistant serotypes HAdV-19c, -25p, and -51p were 32.5±7.5%, 3.3±5.8%, and 24.6±12.0%, respectively.
To measure HD5 binding to HAdV-5 and -51, HD5 was serially diluted in PBS and mixed with 5 µg purified virus. […] The other half of each sample was used to make a standard curve for quantification. […] Virus bands were quantified using ImageQuant NT software (GE Healthcare). […] The amount of HD5 in the centrifuged samples was then quantified against the standard curve using Prism software. […]

HAdV-7 = test: Virus-defensin binding, HAdV-7; design: species or system human adenovirus
HAdV-F serotypes = test: Infection assay (hexon staining), HAdV species F; type: cell-based, human adenovirus; conditions: 15 µM HD5, A549 cells, hexon staining at ~48 h, vs. no defensin; upper limit 200%
Procedure: To determine whether sensitivity to α-defensins is a general property of HAdVs, serotypes representative of HAdV species A–F were tested for infectivity in the presence of 15 µM HD5 or HNP1 (Figure 1). Wild type HAdVs rather than vectors were used for these studies, and infectivity was assessed by staining for hexon production. […] These studies indicate that sensitivity to α-defensins is species specific. In addition, particular HAdV serotypes are not equally sensitive to all defensins, indicating defensin sequence specificity as well.
Figure 1 Sensitivity to neutralization by alpha-defensins is AdV species specific. HAdVs were incubated with 15 µM HD5 (A) or HNP1 (B) and assessed for infectivity on A549 cells. Data are the mean of the percent infectivity compared to control cells infected with each virus in the absence of defensin for at least three independent experiments ± SD. The upper limit for quantification of this assay is 200%. […]
(§1) Prior to use in this assay, each virus stock was titrated on A549 cells. […] In parallel, wells were infected with two-fold serial dilutions of each virus to establish a standard curve for quantification with an upper limit of 200%. […] Total well fluorescence above background was quantified with ImageJ software. For each virus, samples were quantified by nonlinear regression against the standard curve using Prism software (GraphPad Software, Inc., La Jolla, CA).

19cF = test: Infection assay, 19cF virus chimera; type: cell-based, human adenovirus
Source text: The availability of sensitive (e.g., HAdV-5) and resistant (e.g., HAdV-19c) serotypes provided a means to test this HD5 neutralization model by generating virus chimeras. Initially, virus chimeras were constructed by replacing the sequences for fiber, penton base, and hexon in the HAdV-5 genome with the corresponding sequences from HAdV-19c. Consistent with previous studies, [38], the virus chimera containing the HAdV-19c hexon is not viable; however, constructs containing the HAdV-19c fiber (19cF) or penton base (19cPB) are capable of replicating. […] In contrast, the 19cPB virus has an intermediate phenotype.
Figure 6 Neutralization determinants are located in fiber and penton base. A) Schematic of chimeric viruses. […] B) Each of the chimeric viruses was incubated with 5 µM (grey) or 10 µM (black) HD5 and assessed for infectivity on A549 cells. […] The upper limit for quantification of this assay is 200%.
as §1

B1: HD5: human alpha-defensin; synthetic, obtained from Peptides International; three disulfide bonds (PDB 1ZMP) (peptide, UniProt Q01523 20-94, looked up)
Defensin alpha 5: ESLQERADEATTQKQSGEDNQDLAISFAGNGLSALRTSGSQARATCYCRTGRCATRESLSGVCEISGRLYRLCCR
modifications: Defensin-5
- HD5 bound, percent of HD5 bound to HAdV-5 (HAdV-51p; 20 µM HD5, mean of two or three independent experiments ± SD): 24.6±12.0%
- level of HD5 binding (in words) (HAdV-51p; HAdV-51p): only a low level of binding
- level of HD5 binding (in words) (HAdV-7): specific binding
- sensitivity to neutralization (infectivity) (HAdV-F serotypes): completely resistant to HD5-mediated neutralization and, in most cases, infection is actually enhanced
- sensitivity to HD5 neutralization (19cF; 5 µM and 10 µM HD5, A549 cells, at least three independent experiments, upper limit 200%): completely resistant to neutralization
- defensin-resistance at higher HD5 concentration (19cF; 20 µM HD5, data not shown): confirmed the defensin-resistance
